Measurements as given in patent publication CN118459575A.

Target: 新型冠状病毒SARS-CoV-2和SARS-CoV以及动物来源的SARS-like冠状病毒S1
Assay: ELISA, S1 coated at 2 μg/mL, antibody titrated

B1: 广谱抗sarbecovirus和/或新冠突变株的抗体 SCM12-61 (antibody, V domains shown)
VH: QVQLVESGGGVVQPGRSLRLSCATSGFTFRSSAMHWVRQAPGKGLEWVAVIWFDGIKKYYTDSVKGRFTISRDNSKNTLYLQMNSLGAEDTAVYYCARDRAREFYPGPHCGDECYSSDAFDVWGQGTTVIVSS
VL: DIQMTQSPSSLSASVGDRVTITCRASQDINTYLNWYQQKSGRAPKFLIYAASSLQSGIPSRFSGSGSGTDFTLTIDSLQPEDFATYYCQQSHSIPYTFGQGTKLEIKR
- EC50: 0.0239 to 0.0405 µg/mL
